How the values were obtained:
[1] = molecular target: His-tagged FcγRI (human) (UniProt P12314); assay: ELISA
[2] = molecular target: His-tagged FcγRIIB (human) (UniProt P31994); assay: ELISA
[3] = molecular target: His-tagged FcγRIIaR (human) (UniProt P12318); assay: ELISA
[4] = molecular target: FcγRIIIaV (human) (UniProt P08637); assay: BLI
Sequence of UniProt P08637 (P08637 17-208): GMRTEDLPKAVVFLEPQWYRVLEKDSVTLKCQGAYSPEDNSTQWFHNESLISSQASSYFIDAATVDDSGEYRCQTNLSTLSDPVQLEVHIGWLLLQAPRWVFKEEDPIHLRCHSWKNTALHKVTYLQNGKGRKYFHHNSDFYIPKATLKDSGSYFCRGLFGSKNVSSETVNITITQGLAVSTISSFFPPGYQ

Sequence of UniProt P12314 (P12314 16-292): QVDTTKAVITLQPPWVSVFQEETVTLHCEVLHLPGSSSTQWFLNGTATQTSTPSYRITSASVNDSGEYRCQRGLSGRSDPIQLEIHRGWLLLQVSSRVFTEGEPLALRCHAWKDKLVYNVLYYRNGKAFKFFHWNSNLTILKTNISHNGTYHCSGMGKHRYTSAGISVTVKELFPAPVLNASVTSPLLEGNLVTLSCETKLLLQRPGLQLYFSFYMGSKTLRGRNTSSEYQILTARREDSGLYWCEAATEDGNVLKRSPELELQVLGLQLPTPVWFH
Sequence of UniProt P31994 (P31994 43-217): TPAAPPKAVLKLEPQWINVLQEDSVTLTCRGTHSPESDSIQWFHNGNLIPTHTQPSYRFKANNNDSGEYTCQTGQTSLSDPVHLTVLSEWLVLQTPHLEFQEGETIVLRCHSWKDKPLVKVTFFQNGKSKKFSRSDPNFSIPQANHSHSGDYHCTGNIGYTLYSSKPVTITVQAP
Sequence of UniProt P12318 (P12318 34-217): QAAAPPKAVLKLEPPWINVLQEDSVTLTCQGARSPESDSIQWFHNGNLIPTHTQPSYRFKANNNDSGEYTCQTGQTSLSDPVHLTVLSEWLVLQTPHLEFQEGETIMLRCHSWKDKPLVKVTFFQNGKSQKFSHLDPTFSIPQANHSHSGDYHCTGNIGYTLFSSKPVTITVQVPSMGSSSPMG

fold reduction of binding competition against 293S anti-CD20 [1]: > 10 fold | fold reduction of binding competition against 293S anti-CD20 [2]: > 10 fold | fold reduction of binding competition against 293S anti-CD20 [3]: > 10 fold | fold lower binding affinity against 293S anti-CD20 [4]: 5.8 fold
Substance: monoclonal anti-CD20 antibody GA101 produced in 293SGlycoDelete cells
